Measurements as given in article PMC9585320 (Frontiers in Molecular Biosciences, 2022).

T1: MazF9 toxin, (His)6MazF(FLAG)3 (Mycobacterium tuberculosis, UniProt P71650 1-118)
T1 chain: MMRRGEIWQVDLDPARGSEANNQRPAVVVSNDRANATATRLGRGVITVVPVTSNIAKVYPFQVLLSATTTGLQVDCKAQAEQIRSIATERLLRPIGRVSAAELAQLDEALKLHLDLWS

B1: MazE6 antitoxin, full length, purified (natural protein)
chain: MKTAISLPDETFDRVSRRASELGMSRSEFFTKAAQRYLHELDAQLLTGQIDRALESIHGTDEAEALAVANAYRVLETMDDEW
B2: C-terminal MazE9 peptide (residues 43-76) (peptide)
chain: LEDDYANAWQEWSAAGDTDAWEQTVGDGVGDAPR
B3: C-terminal MazE3 peptide (residues 72-106) (peptide)
chain: RLAERDAEILATNTSATGDLDTLAGHCARTALDID

Legend:
MazF6 library = test: flow cytometry on cells
[1] = target: T1, MazF9 toxin, (His)6MazF(FLAG)3; test: MST

Row | Binder | Kd (MazF6 library) | Kd [1]
1 | B1 | 0.13 nM | –
2 | B2 | – | 5.2 nM
3 | B3 | – | 173 nM
